# B1: peptide Col108r (Col-domain, randomized Col-domain and reversed Col-domain units) (peptide)
# chain: GPCCGPPGPPGPPGPPGERGPPGPQGARGLPGAPGQMGPRGLPGERGRPGAPGPAGARGEPGAPGSKGDTGAKGEPGPVGVQGPPGPAGEEGKRGARGEPGPTGPAGPKGSPGEAGRPGEAGLPGPPGPPGPPGPPGMQGLPGPRGAPGRAGPEGRAGRPGPAGLPGEQGRAGRPGPPGAEGAEGKPGAPGSPGPRGLPGPAGDTGPEGQVGARGPKGEPGTPGRAGEPGEPGVPGKAGPKGESGPPGPPGPPGPPGREGPPGQPGRAGPLGPAGMQGRPGPLGREGPRGPAGAPGRAGPEGPAGKSGTDGKAGPEGVPGQVGPPGAPGEEGRKGRAGPEGTPGAPGKPGPSGAEGPRGAEGPLGPPGPPGPPGPPGPCCGYIPEAPRDGQAYVRKDGEWVLLSTFL
# notes: Forms a collagen triple helix (trimer) with Cys-knots and foldon
# Biological target: the molecule itself
# Experiment: TEM, negative stain, TES buffer pH 7, 24 h at 37 C; non-specific self-association (no fibrils)
# Experimental: FIG. 5A and FIG. 5B are TEM images of the non-specific aggregates of Col108r. The fibril formation was initiated by transferring Col108r in 5 mM Acetic Acid (pH 4.5) to TES buffer (pH 7) and incubated for 24 hr at 37° C. The grids were stained with 1% sodium phosphotungstate; magnification factor 10,000; the scale bar is 200 nm. The two images were taken for two different preparations under identical treatments.
protein,measurement,value
B1,binding result,binds
